Consider 3 molecules from US20250084174A1.

The target of assay [1] is human CCR9 (isoform not given) (human), P51686.
Assay [2] addresses CCR9 (species and isoform not stated) (UniProt P51686). The assay is described as follows: cell-based or functional assay.
Assay [3] deals with human CCR9 (isoform not given) (human), P51686. The assay can be described thus: cell-based or functional assay.
The target in assay [4] is CCR9 (species and isoform not stated) (UniProt P51686).
For assay [5] the target is unchanged. The assay can be described thus: LigandTracer on CCR9-expressing CHO K1 cells, DyLight 650 labelled IgG, bivalent (1:2) fit, ~22 °C.

Numbering of substitutions follows the chain as printed.

Chain of human CCR9 (isoform not given) (human), P51686 (P51686 whole entry, canonical isoform): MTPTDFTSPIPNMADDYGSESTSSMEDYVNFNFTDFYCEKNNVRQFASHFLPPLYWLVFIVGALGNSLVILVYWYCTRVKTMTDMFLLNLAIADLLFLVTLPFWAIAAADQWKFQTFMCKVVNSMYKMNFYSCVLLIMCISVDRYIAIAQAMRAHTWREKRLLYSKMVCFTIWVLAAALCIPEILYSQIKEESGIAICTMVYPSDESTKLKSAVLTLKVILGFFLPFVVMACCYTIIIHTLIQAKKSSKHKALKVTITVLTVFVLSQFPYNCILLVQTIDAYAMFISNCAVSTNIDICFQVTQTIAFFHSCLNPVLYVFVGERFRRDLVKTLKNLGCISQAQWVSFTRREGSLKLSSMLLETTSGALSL

B1: AB243LO0326 (antibody, V domains shown)
VH: QVQLVQSGAEVKKPGASVKVSCKASGYTFTSYWMHWVRQAPGQGLEWIGVIYPGNSDTRYNQKFKGRVTITRDTSASTAYMELSSLRSEDTAVYYCTRDYYSNYVYYYAMDYWGQGTTVTVSS
VL: DIVMTQTPLSLPVTPGEPASISCRSSQSLVHPNRNTYLHWYLQKPGQSPQLLIYKVSNRFSGVPDRFSGSGSGTDFTLKISRVEAEDVGVYYCSQSTHVPWTFGQGTKLEIK
modifications: here or on the partner: afucosylated form; in the LigandTracer assay DyLight 650 Maleimide on an engineered cysteine residue in the CH2 region
Turning to B1, the IC50 (read off the curve), HTRF IP-One, MOLT 4 cells, 50 nM CCL25 in assay [1] stood at 0.6 nM. The same molecule displayed a prevention of CCL25 induced CCR9 internalisation (FACS) in assay [2] of 2 nM. In assay [3], this molecule returned an EC50, killing of PBMC of 0.004 nM and an EC50, killing of human CD4+CCR9+ PBMC of 0.004 to 0.005 nM.

B2: AB243LO0331 (antibody, IgG1, V domains shown)
VH: B1 VH
VL: B1 VL with P32S, R34T
modifications: here or on the partner: afucosylated form
Take B2: the IC50 (read off the curve), HTRF IP-One, MOLT 4 cells, 50 nM CCL25 in assay [1] was 0.6 nM.

B3: humanised AB1020243 afuc (AB1020243-fgl) (antibody, V domains shown)
VH: B1 VH
VL: B1 VL with P32S, R34G
modifications: afucosylated form; in the LigandTracer assay DyLight 650 Maleimide on an engineered cysteine residue in the CH2 region
For orientation: koff means the first-order rate constant of dissociation. A lower koff goes with slow dissociation. For the molecule B3, in assay [4], the EC50, luminescence signal (CPS) against Log M; potency curve as in the NK cell activation reporter assay; the target cell line is not printed on the sheet amounted to 7.3e-09 M. Moreover, the Potency, NK cell activation (NK-92 CD16a NFAT luciferase reporter) in assay [3] turned out to be 0.8 nM. In assay [5], this molecule had a koff of 4.3e-05 s⁻¹.
